Source: the supplement of paper PMC7125110
± gives the standard error. For part of these data: This sample holds only a part of the variants without activity.

B1: glmS ribozyme (parent)
chain: AUAAAAGCGCCAGAACUACAGAAAUGUAGUUGACGAGGAGGAGGUUUAUCGAAUUUUCGGCGGAUGCCUCCAAA

Legend:
Settings in all cases: with glucosamine-6-phosphate
glucosamine-6-phosphate [1] = variants of: B1; assay: kcat; higher = faster cleavage; RNA array
In short: (§1)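 A hybridised Cy3 probe tracked barcoded ribozyme variants, transcribed in situ by E. coli RNA polymerase on sequenced MiSeq chips, at 37 °C. The variants received 40 μM to 10 mM glucosamine-6-phosphate in HEPES/KCl/Mg(OAc)2 buffer. kobs came from decay fits and kcat and KM from weighted Michaelis–Menten fits.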

glucosamine-6-phosphate [2] = variants of: B1; assay: self-cleavage kobs at 40 uM GlcN6P; higher = faster cleavage; RNA array
In short: as §1

glucosamine-6-phosphate [3] = variants of: B1; assay: self-cleavage kobs at 160 uM GlcN6P; higher = faster cleavage; RNA array
In short: as §1

glucosamine-6-phosphate [4] = variants of: B1; assay: self-cleavage kobs at 640 uM GlcN6P; higher = faster cleavage; RNA array
In short: as §1

glucosamine-6-phosphate [5] = variants of: B1; assay: self-cleavage kobs at 2500 uM GlcN6P; higher = faster cleavage; RNA array
In short: as §1

glucosamine-6-phosphate [6] = variants of: B1; assay: self-cleavage kobs at 10000 uM GlcN6P; higher = faster cleavage; RNA array
In short: as §1

glucosamine-6-phosphate [7] = variants of: B1; assay: KM; higher = weaker cofactor use; RNA array
In short: as §1

Variant	kcat (glucosamine-6-phosphate [1])	self-cleavage kobs at 40 uM GlcN6P (glucosamine-6-phosphate [2])	self-cleavage kobs at 160 uM GlcN6P (glucosamine-6-phosphate [3])	self-cleavage kobs at 640 uM GlcN6P (glucosamine-6-phosphate [4])	self-cleavage kobs at 2500 uM GlcN6P (glucosamine-6-phosphate [5])	self-cleavage kobs at 10000 uM GlcN6P (glucosamine-6-phosphate [6])	KM (glucosamine-6-phosphate [7])
A14U U31A	0.0165 ± 0.0068 s⁻¹	0.000492 ± 4e-05 s⁻¹	0.00191 ± 0.00038 s⁻¹	0.00488 ± 0.00072 s⁻¹	0.00761 ± 0.0014 s⁻¹	0.028 ± 0.0038 s⁻¹	
A15C U55A	0.00649 ± 0.0016 s⁻¹	0.000161 ± 2.8e-05 s⁻¹	0.000516 ± 8.7e-05 s⁻¹	0.00128 ± 0.00023 s⁻¹	0.00484 ± 0.00095 s⁻¹	0.0054 ± 0.00095 s⁻¹	1920 ± 650 µM
A14U A39U	0.00814 ± 0.0024 s⁻¹	0.000133 ± 1.7e-05 s⁻¹	0.000258 ± 6.7e-05 s⁻¹	0.00161 ± 0.00024 s⁻¹	0.00346 ± 0.00063 s⁻¹	0.00632 ± 0.00089 s⁻¹	3050 ± 1200 µM
A14U C50U C67G	3.51e-05 ± 1.5e-05 s⁻¹						
A15C G44A	2.81e-05 ± 1.7e-07 s⁻¹	< 1e-05 s⁻¹	< 1e-05 s⁻¹			2.02e-05 ± 9.6e-06 s⁻¹	3920 ± 72 µM
A15C G44U	4.07e-05 ± 6.1e-06 s⁻¹	< 1e-05 s⁻¹	< 1e-05 s⁻¹				
A14U G51U	< 1e-05 s⁻¹	< 1e-05 s⁻¹		< 1e-05 s⁻¹		< 1e-05 s⁻¹	
A15C U31A	0.00691 ± 0.0013 s⁻¹	0.000156 ± 2.2e-05 s⁻¹	0.000607 ± 0.00013 s⁻¹	0.0015 ± 0.00035 s⁻¹	0.00303 ± 0.00078 s⁻¹	0.0067 ± 0.001 s⁻¹	1860 ± 480 µM
A15C U31G	0.00453 ± 0.0018 s⁻¹	8.5e-05 ± 3.2e-05 s⁻¹	0.000187 ± 5.2e-05 s⁻¹		0.00159 ± 0.00063 s⁻¹	0.00376 ± 0.0012 s⁻¹	
A14U C71G	0.000432 ± 8.9e-05 s⁻¹	2.7e-05 ± 9.2e-06 s⁻¹	5.71e-05 ± 1.1e-05 s⁻¹	0.000111 ± 1.3e-05 s⁻¹	0.000237 ± 3.2e-05 s⁻¹	0.000402 ± 4.2e-05 s⁻¹	1620 ± 630 µM
A14G U57G	0.000171 ± 2.6e-06 s⁻¹			3.71e-05 ± 8e-06 s⁻¹	8.67e-05 ± 9.4e-06 s⁻¹	0.000139 ± 1.3e-05 s⁻¹	2380 ± 88 µM
A15C G41C	3.33e-05 ± 2.9e-06 s⁻¹					2.79e-05 ± 1.2e-05 s⁻¹	1850 ± 570 µM
A15C U45C	0.000613 ± 8.6e-05 s⁻¹			6.81e-05 ± 1.6e-05 s⁻¹	0.000176 ± 3.7e-05 s⁻¹	0.000409 ± 7.5e-05 s⁻¹	5480 ± 1200 µM
A15C C58U	3.18e-05 ± 2.2e-06 s⁻¹				2.9e-05 ± 1.1e-05 s⁻¹		214 ± 97 µM
A14U C50G	0.000106 ± 3e-05 s⁻¹	4.12e-05 ± 1.3e-05 s⁻¹	0.000164 ± 3e-05 s⁻¹		9.1e-05 ± 1.6e-05 s⁻¹	0.000112 ± 5e-05 s⁻¹	
A14U A48G	1.29e-05 ± 5.7e-06 s⁻¹		< 1e-05 s⁻¹				
A15C A39U	0.00476 ± 0.00092 s⁻¹	0.000106 ± 1.2e-05 s⁻¹	0.000264 ± 5e-05 s⁻¹	0.000744 ± 0.00036 s⁻¹	0.00216 ± 0.00041 s⁻¹	0.00417 ± 0.00045 s⁻¹	2170 ± 610 µM
A14U A42U	3.26e-05 ± 1.5e-06 s⁻¹					3.02e-05 ± 7.7e-06 s⁻¹	884 ± 270 µM
A14G U65C	0.00147 ± 0.00035 s⁻¹	7.25e-05 ± 1.9e-05 s⁻¹	0.000176 ± 3.5e-05 s⁻¹	0.000445 ± 9.2e-05 s⁻¹	0.00142 ± 0.00028 s⁻¹	0.00124 ± 0.00025 s⁻¹	1120 ± 420 µM
A14U A64U	1.88e-05 ± 5.9e-07 s⁻¹						8870 ± 560 µM
A14U U54G	0.00917 ± 0.0032 s⁻¹	0.000217 ± 2.4e-05 s⁻¹	0.000382 ± 6.2e-05 s⁻¹	0.00128 ± 0.00026 s⁻¹	0.00387 ± 0.00047 s⁻¹	0.00759 ± 0.00076 s⁻¹	
A14U U54C	0.00754 ± 0.0024 s⁻¹	0.00021 ± 2.8e-05 s⁻¹	0.000513 ± 8.8e-05 s⁻¹	0.00201 ± 0.00026 s⁻¹	0.00338 ± 0.00053 s⁻¹	0.00856 ± 0.0012 s⁻¹	1830 ± 830 µM
A14U U30G	0.00494 ± 0.00089 s⁻¹	0.000104 ± 8.8e-06 s⁻¹	0.000282 ± 3.6e-05 s⁻¹	0.000998 ± 0.0001 s⁻¹	0.0033 ± 0.00052 s⁻¹	0.00404 ± 0.00036 s⁻¹	2220 ± 540 µM
A15C C16U	0.00405 ± 0.00069 s⁻¹	4.37e-05 ± 7.4e-06 s⁻¹	0.000159 ± 4.5e-05 s⁻¹	0.000777 ± 0.0001 s⁻¹	0.00235 ± 0.00038 s⁻¹	0.0029 ± 0.0003 s⁻¹	3220 ± 830 µM
A15C C68A	2.89e-05 ± 1.1e-05 s⁻¹						
A15C C67U	0.00143 ± 0.00033 s⁻¹	7.54e-05 ± 8.7e-06 s⁻¹	0.000198 ± 6.2e-05 s⁻¹	0.00045 ± 6.9e-05 s⁻¹	0.00177 ± 0.00038 s⁻¹	0.00139 ± 0.00015 s⁻¹	881 ± 330 µM
A14U U49C	< 1e-05 s⁻¹	< 1e-05 s⁻¹	< 1e-05 s⁻¹				
A14U A53C	0.00136 ± 0.00017 s⁻¹	3.59e-05 ± 9.1e-06 s⁻¹	9.57e-05 ± 1.5e-05 s⁻¹	0.000309 ± 3.9e-05 s⁻¹	0.000834 ± 7.7e-05 s⁻¹	0.00105 ± 0.00014 s⁻¹	1970 ± 410 µM
A14U G66A	0.00402 ± 0.0012 s⁻¹	0.000107 ± 1.8e-05 s⁻¹	0.000254 ± 3.9e-05 s⁻¹	0.00104 ± 0.00029 s⁻¹	0.00172 ± 0.0003 s⁻¹	0.00403 ± 0.00059 s⁻¹	2120 ± 870 µM
A14U U65G	0.00172 ± 0.00014 s⁻¹	2.77e-05 ± 8e-06 s⁻¹	0.000118 ± 1.7e-05 s⁻¹	0.000431 ± 4.8e-05 s⁻¹	0.000875 ± 0.00012 s⁻¹	0.00144 ± 0.00018 s⁻¹	2120 ± 250 µM
